The text below walks through data of paper PMC7367192.

Series [1] has as its target vWF A1 domain R1392A/R1395A/R1399A (UniProt P04275). The series can be described thus: MST. The settings on record: MST: PBS (162 mM ionic strength), optionally +150 mM NaCl; EMSA: 0.5x TA (20 mM ionic strength), +10 or +40 mM NaCl; FCS after shear at 2000-4000 s-1; pH and …. Background: In EMSA bound probe runs differently from free probe, usually more slowly.
The target of the next series is vWF A1 domain (UniProt P04275). Put plainly: MST. The settings on record: MST: PBS (162 mM ionic strength), optionally +150 mM NaCl; EMSA: 0.5x TA (20 mM ionic strength), +10 or +40 mM NaCl; FCS after shear at 2000-4000 s-1; pH and ….
Another series has as its target wt vWF multimer (UniProt P04275). The series can be described thus: FCS. Particulars: MST: PBS (162 mM ionic strength), optionally +150 mM NaCl, EMSA: 0.5x TA (20 mM ionic strength), +10 or +40 mM NaCl, FCS after shear at 2000-4000 s-1, pH and ….
For series [2], the target named is eGFP full-length vWF dimer (UniProt P04275). The series can be described thus: EMSA. Particulars: fixed dimer 0.47 mg/ml, DNA titrated; MST: PBS (162 mM ionic strength), optionally +150 mM NaCl; EMSA: 0.5x TA (20 mM ionic strength), +10 or +40 mM NaCl; FCS after shear at 2000-4000 s-1; pH and ….

In the case of “CATAAATCTTTGAATACCAAGTGTTAGAACCATCAACCATATCAACTTCCTTTATACATCTA / CTACATCACTTTCTTCATTATAAAATAAAAGGAAGTTGATATGGTTGATG [23 bp ds DNA]”, the values for the Kd (in series [1]; with vWF A1 domain) were 30 µM and 13 µM, respectively. The binding signal in the series with wt vWF multimer (shear 4000 s-1) turned out to be 23 % bound; with wt vWF multimer (shear, 2000 s-1?), 21 % bound.
In the case of “GGCGTGCAGTGCCTTCGGCCGTGCGGTGCCTCCGTCACGCCTAAAATAAAA [ARC1172 ss DNA]”, the results for the Kd (in series [1]; with vWF A1 domain; in series [2]) were 130 µM, 10 µM and 0.001 µM, respectively.

Broadly, the Kd is the constant that tells how readily two partners part at equilibrium. Read a low Kd as tighter binding.
